The target in this test is T1, paLptD, LptD from Pseudomonas aeruginosa (as the chain in paLptDEHis) (Pseudomonas aeruginosa, UniProt Q9I5U2 34-924).
T1 sequence: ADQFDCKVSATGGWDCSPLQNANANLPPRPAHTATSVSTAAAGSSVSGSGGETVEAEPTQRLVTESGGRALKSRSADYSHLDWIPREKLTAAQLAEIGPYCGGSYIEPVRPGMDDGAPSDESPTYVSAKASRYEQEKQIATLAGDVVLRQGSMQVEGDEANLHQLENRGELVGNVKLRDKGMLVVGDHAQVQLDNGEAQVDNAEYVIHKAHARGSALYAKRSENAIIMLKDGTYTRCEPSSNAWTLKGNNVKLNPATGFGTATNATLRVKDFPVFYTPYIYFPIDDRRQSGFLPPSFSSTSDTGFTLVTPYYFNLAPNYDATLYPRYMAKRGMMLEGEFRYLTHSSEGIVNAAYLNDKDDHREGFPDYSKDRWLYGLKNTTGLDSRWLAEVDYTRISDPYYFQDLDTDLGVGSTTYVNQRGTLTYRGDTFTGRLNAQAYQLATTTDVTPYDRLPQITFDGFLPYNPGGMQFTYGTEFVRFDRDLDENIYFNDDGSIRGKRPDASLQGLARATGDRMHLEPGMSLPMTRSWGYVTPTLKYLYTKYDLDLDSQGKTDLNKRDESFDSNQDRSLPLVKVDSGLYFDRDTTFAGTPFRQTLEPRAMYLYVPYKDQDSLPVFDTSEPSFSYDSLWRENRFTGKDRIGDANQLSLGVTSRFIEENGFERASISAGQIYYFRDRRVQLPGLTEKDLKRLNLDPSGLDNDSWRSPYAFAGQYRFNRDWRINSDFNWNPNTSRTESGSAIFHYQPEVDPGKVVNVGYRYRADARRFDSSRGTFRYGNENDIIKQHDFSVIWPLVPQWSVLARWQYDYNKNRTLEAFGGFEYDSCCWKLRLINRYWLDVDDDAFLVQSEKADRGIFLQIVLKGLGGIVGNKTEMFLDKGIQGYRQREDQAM
The experiment in a line: crystal structure.

Results on one molecule are retold here after article PMC12065857 (Nature Communications, 2025).

No end group written: not given here.

Regarding CGLKGPLYFPPADKNAPPPTKPVETQTQSTVPDKNDRATGDGPSQVNY (natural protein, also: three acyl chains (R1, R2, R3) at the N-terminus) [LptM (formerly YifL), endogenous Escherichia coli lipoprotein], the binding result is listed as “binds”.
